Data on 66 sequences can be found in the supplement of paper PMC10126150.

± gives the standard deviation of the averaged measurements.

The test system of the data set is ATP. In words: switch fluorescence ratio, 500 uM ATP over buffer (Cy3 cluster intensity, sum of 5 cycles each) (fold (ratio)); higher = stronger signal-on switching upon ATP binding; sequences stand for … in TCGTCGGCAGCGTCAGATGTGTATAAGAGACAGTTTTTTTTTTTTTTTTTTTTTTTTT…TC. Conditions: aptamer strand: ATP DNA aptamer (quencher-CACCTGGGGGAGTATTGCGGAGGAAGG + anchor), 100 nM annealed; ATP concentration: 500 uM. In a few lines:
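Cy3-labelled switching-strand clusters on a modified Illumina MiSeq flow-cell were annealed to 100 nM quencher-labelled ATP aptamer and imaged first in selection buffer, then after 15 min with 500 uM ATP at 22 °C. NaOH stripping and re-annealing separated each of five buffer/ATP cycles, and clusters outside 100-1000 RFU were excluded. The fluorescence ratio sums target-cycle Cy3 intensity over buffer-cycle Cy3 intensity per cluster and averages it per switch-domain sequence.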
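Further: ATP exposure 15 min at 22 °C before imaging.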

Consider GGGAGGGTTT, for which the switch fluorescence ratio turned out to be 0.98 ± 0.022.

For the sequence CTCTAAGGGT, the switch fluorescence ratio turned out to be 1.005 ± 0.0098.

Consider GGATAAACGG, for which the switch fluorescence ratio turned out to be 1.03 ± 0.082.

For the sequence GGGTTTCGAG, the switch fluorescence ratio turned out to be 1.04 ± 0.016.

As to GCTCTTTGGG, the switch fluorescence ratio worked out at 1.06 ± 0.13.

On to TGGTACGGTT, for which the switch fluorescence ratio is 0.975 ± 0.015.

Turning to TGCAATTGGT, the switch fluorescence ratio stood at 1.01 ± 0.016.

For the sequence TATTAGTGGG, the switch fluorescence ratio is 0.979 ± 0.025.

For the sequence TCGGAGGTCA, the switch fluorescence ratio came out at 0.956 ± 0.03.

Turning to GCAGAAAAAT, the switch fluorescence ratio is 1.04 ± 0.023.

In the case of CGAAGCTTAT, the switch fluorescence ratio worked out at 2.74 ± 0.53.

With CCATCGGTGG, the switch fluorescence ratio is 1 ± 0.047.

ATTTTATAAA: the switch fluorescence ratio stood at 0.986 ± 0.026.

TGGGAAGTTG: the switch fluorescence ratio turned out to be 0.956 ± 0.04.

Regarding GGGGGTTCCG, the switch fluorescence ratio was 0.98 ± 0.021.

TGATGGTATA: the switch fluorescence ratio amounted to 1.01 ± 0.025.

In the case of GAATTGAAAA, the switch fluorescence ratio came out at 1.02 ± 0.026.

On to AACGATTTTT, for which the switch fluorescence ratio amounted to 1.007 ± 0.0084.

Regarding GTGTAGAGTT, the switch fluorescence ratio is 1.02 ± 0.016.

For the sequence GAAATTGGCA, the switch fluorescence ratio is 1.025 ± 0.004.

Consider GCGGGATGGC, for which the switch fluorescence ratio was found to be 1.007 ± 0.0087.

On to TCGAAACTGG, for which the switch fluorescence ratio came to 1.09 ± 0.11.

Take AGTGGGAGTA: the switch fluorescence ratio was 1.05 ± 0.052.

In the case of GGGTTAGGAT, the switch fluorescence ratio is 0.98 ± 0.029.

As to CGTTTGAAAA, the switch fluorescence ratio came to 1.019 ± 0.0058.

On to TGCTAGGTCA, for which the switch fluorescence ratio stood at 0.969 ± 0.0059.

As for TTTGCTTAAC, the switch fluorescence ratio stood at 1.07 ± 0.13.

On to CCAGTTGATG, for which the switch fluorescence ratio amounted to 0.991 ± 0.057.

Regarding CGATTTGCTT, the switch fluorescence ratio came out at 0.969 ± 0.058.

Turning to AAGGGCTTTT, the switch fluorescence ratio was 1.01 ± 0.036.

With AAGACTAGTT, the switch fluorescence ratio is 0.999 ± 0.03.

As for ATCAAAACGT, the switch fluorescence ratio stood at 1.04 ± 0.043.

With ACCATTACAC, the switch fluorescence ratio was 1.24 ± 0.024.

Take GCCGAATCTG: the switch fluorescence ratio is 1 ± 0.02.

Consider GAGAGGGGAA, for which the switch fluorescence ratio was determined as 1.01 ± 0.009.

Consider CGGGTATTTA, for which the switch fluorescence ratio came out at 1.01 ± 0.025.

As to TTTGGTTTTT, the switch fluorescence ratio was determined as 0.999 ± 0.031.

On to CTGAATTGGT, for which the switch fluorescence ratio amounted to 0.975 ± 0.012.

Take TATAGGGACA: the switch fluorescence ratio was 1.2 ± 0.03.

ATGTTAAAAG: the switch fluorescence ratio is 1.01 ± 0.035.

For the sequence TATTTGCATC, the switch fluorescence ratio was 1.01 ± 0.018.

On to GTGTTTAAA, for which the switch fluorescence ratio came out at 0.962 ± 0.014.

Take CCTGGGGCGG: the switch fluorescence ratio amounted to 1.07 ± 0.019.

For AGTTATATGT, the switch fluorescence ratio was determined as 0.985 ± 0.037.

In the case of AAAGAGGGTG, the switch fluorescence ratio came out at 1.1 ± 0.058.

Regarding CCGGATCGGC, the switch fluorescence ratio stood at 1.04 ± 0.029.

For AGTAGGTTAG, the switch fluorescence ratio came out at 0.989 ± 0.04.

As to CGGGACGTTT, the switch fluorescence ratio worked out at 1.01 ± 0.013.

For CAATTTCAGC, the switch fluorescence ratio is 0.999 ± 0.025.

Consider GTTATATAGG, for which the switch fluorescence ratio was determined as 0.982 ± 0.046.

Take TGGATATAGT: the switch fluorescence ratio worked out at 0.9937 ± 0.0038.

Take TTGGGTCCGA: the switch fluorescence ratio worked out at 1.01 ± 0.049.

For TATGGAGGGT, the switch fluorescence ratio amounted to 1.01 ± 0.022.

With ATCGTCGGTT, the switch fluorescence ratio is 0.973 ± 0.013.

Take TTTTCTTTTA: the switch fluorescence ratio turned out to be 1.001 ± 0.0032.

Take AGGTATTAGG: the switch fluorescence ratio was found to be 0.988 ± 0.041.

Turning to CGGATCATCA, the switch fluorescence ratio stood at 1 ± 0.021.

For the sequence AGAATCAGCA, the switch fluorescence ratio was 1.01 ± 0.019.

Regarding GTTGTTACGG, the switch fluorescence ratio came out at 1.01 ± 0.037.

On to GGATACATGT, for which the switch fluorescence ratio came to 1.003 ± 0.0031.

Take GTTAATAACA: the switch fluorescence ratio was determined as 1.011 ± 0.0052.

As to GGATTTTTTG, the switch fluorescence ratio is 0.983 ± 0.021.

AAGCTGACAG: the switch fluorescence ratio stood at 1.01 ± 0.013.

TATGTCTCGC: the switch fluorescence ratio was found to be 0.995 ± 0.044.

In the case of TAAGAAGGGT, the switch fluorescence ratio was 0.991 ± 0.024.

For the sequence GTTTCAGGTT, the switch fluorescence ratio stood at 2.12 ± 1.6.
